Laboratory results taken from US20250136710A1.

Key:
[1] = molecular target: human PVRIG expressed on cells (human) (UniProt Q6DKI7); experiment: FACS; Jurkat cells
[2] = molecular target: human PVRIG expressed on cells (human) (UniProt Q6DKI7); experiment: FACS
[3] = molecular target: mouse PVR protein, recombinant (mouse); experiment: SPR / ELISA with recombinant proteins

human PVRIG expressed on cells (human), sequence (Q6DKI7 41-326): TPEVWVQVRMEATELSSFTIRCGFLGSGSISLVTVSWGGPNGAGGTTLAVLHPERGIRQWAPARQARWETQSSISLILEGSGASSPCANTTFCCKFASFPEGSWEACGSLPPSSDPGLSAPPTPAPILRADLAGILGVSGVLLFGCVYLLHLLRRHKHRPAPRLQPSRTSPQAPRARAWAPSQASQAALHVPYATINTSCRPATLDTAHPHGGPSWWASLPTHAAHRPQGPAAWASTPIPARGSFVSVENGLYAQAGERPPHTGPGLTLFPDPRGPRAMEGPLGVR

Kd [1] [nM]	Kd [2] [nM]	fold lower affinity than the interaction with mPVRL2 [3] [fold]	Substance
0.15	0.298	–	PVRIG (COM701)
–	–	10	mouse PVRIG Fc (Fc fusion)
